Reference: the DeepSol protein solubility set

assay: soluble on expression in E. coli; label from the status in PepcDB or PDB records

Sequence | soluble on expression in E. coli
MKVAGVDEAGRGPVIGPLVIGVAVIDEKNIERLRDIGVKDSKQLTPGQREKLFSKLIDILDDYYVLLVTPKEIDERHHSMNELEAEKFVVALNSLRIKPQKIYVDSADVDPKRFASLIKAGLKYEATVIAEHKADAKYEIVSAASIIAKVTRDREIEKLKQKYGEFGSGYPSDPRTKEWLEEYYKQYGDFPPIVRRTWETARKIEERFRKNQLTLDKFLK | soluble
MGSDKIHHHHHHMTATASSSPKLRVDTRGTNELPPHLDENLLTPRFYVTEFKKAAKTELTDAREEFEAMLSEMKADYNCTHFDRKASLDRLQELPQKAKETYESYLVRSVISEFSGFLLFKEISNRLKKEGNRDLGKLFQFLARDEARHAGFLSRALVAEGIEVDLPHLGGKRAATWFPISWVIYSVYLSEKIGYWRYILMDRHLKANPDQAFAPLFDFFEPWCQDENRHGDCFTVMMRCWPGITKGFRGKLLSRFFLWSVFLTHTLTVCERGEFYELLGIDPKEFDEEVIKRTNHTSKNAFPWVFNLDDNKFWDLRNKIIESFRAFVGAKGLTKPVKFVKFATLIFKQFALPMEKTDALRYDKNVNFTGQDILNFWTDK | not soluble
LHRYSEVLGLPVICTADGKNLGTIKDIIFCPKEKSVVAFLIECKGYNRRKKVVFASDVLSLGRDALIVNDADDVRDLKKVLHRPEFKDKGDILGLPIYTKNGEDLGTAKDVLFDLKHGKIDGIEVSDGLLQDIVKGRSVLPLIGKVEFGEENILVDNEAVEEMMETGGGIKNLIEGNKKVQRKG | not soluble
MDVMALKREVIEYSRSIGIDKIGFASADPFVELKERLRRQQELGYQSGFEEPDIEKRTNPSLLLPEAKSIIAIALAYPSKMKNAPRGTKTERRGVFCRASWGKDYHDVLRERLQQLEEFLLAKVPHARVRSMVDTGELADRAVAERAGIGWSGKNCSIITPEFGSYVYLGEMITNIPFPPDEPVENRCGTCTKCIDACPTGALVQGGQLNAQRCLSFLTQTKGFLADEFREKIGNRLYGCDTCQQVCPENKGKDFHLHPEFEPDPEAVKPKLIPLLQMSNREFKETFGAMAGSWRGKKPIQRNAILALAHYKDQTAVPHLLRLLKEDSRPVIRGTAAWALGKIGDPSAKSYLEAARPTEADADVIAEIEKGLKLLAEAKE | not soluble
MGVTLAKGGNVSLSKEAPGLTAVTVGLGWDVRTTTGAAYDLDASALLCSGSGRVVSDLHFVFYNNLTSPDGSVQHTGDNLTGEGEGDDESINVELAQVPAEVTKIVFPVSIHEAQSRGQSFGQVSNAFIRVVNRANNVELARYDLSEDASTETAMVFGELYRHGGEWKFRAVGQGYASGLAGIASDYGVNV | not soluble
MKHSVNAMAGGHGAARYNSTDLPKLPAPQPIKTLKHFLDFAQALQSKKEFQETKQIVNDFVVKDLPKLQELLQKRADALPNWLTPWWLNIAYLAARTPLPVVTSPGVMFPKFDYNTEEGQLEYAAKISQAAVHFYLRAKNNQLKPDMAGKSPLDMSQYQFLFGTTRVPKVGVDEIRYGCDYKEKLQHILVIRNGHLFRVQVLDSNEQPLSIFAITQQLAKVVSESQTPNPHPVGIVSSDSRDKWANVYSSLKKDNNNAKSLEAVEKSLFVVCLDKASEPPVGYTEKDEQSRQALHGGGSKVNSSNRWFDKTIQFVIGTNGYTGMTYEHTPAEGPPVGALMDFICDQFDANTFITEGTPSNSPVQRLDISTDEEINKRIAKSSKNMDSIAEDLDIVAFTFKPYGKNFPKSSKISPDSFIQMAYQLAFYRIHSSLPPTYETATLRKFTEGRTENIRSPNTAAASFVKKMVSKPPTPVSEIYDALVHATNSHKKYTMDCMDAAGMDRHLLAWKLIATENNLPTPEIFGSNIYQQLNHFQVSTSQVPTRHFIQMCFGPSALDCYGICYNPQETELHFMISTFKSYGSTSSKKFAKELQKALIDMKSVINKATKEMSKL | not soluble
MSLSAYSQVSIDKTMFVEGREFLHIDQAGWVAKESTSEEDNRMSKVQEMLSEKYQKDSFSIYVKQLTTGKEAGINQDEKMYAASVLKLSYLYYTQEKINEGLYQLDTTVKYVSAVNDFPGSYKPEGSGSLPKKEDNKEYSLKDLITKVSKESDNVAHNLLGYYISNQSDATFKSKMSAIMGDDWDPKEKLISSKMAGKFMEAIYNQNGFVLESLTKTDFDSQRIAKGVSVKVAHKIGDADEFKHDTGVVYADSPFILSIFTKNSDYDTISKIAKDVYEVLKEGHHHHHH | soluble
MAHHHHHHMTSAYRIRDAAPADAGIMVRMLMSLASETENVELDEGEVRRGVTTLFEQGSLGRLYVAEEVPKGDTNIKGPSDGNRSSPQIVGVMTVTYEWSDWRGKLFLWIQSVYIIPSKRKQGIFQKFYDHLIRIMAEDPKYCGLRLAVNSKNEKAIRAYKQVGMKREKYQLMGRMKSKY | soluble
SSSSSSVPAYLGDEDLTQETRALISSLPKEKGWLVSEIYEFQGLWHTQAILQGILICQKRFEAKDSDIILVTNPKSGTTWLKALVFALLNRHKFPVSSSGNHPLLVTNPHLLVPFLEGVYYESPDFDFSSLPSPRLMNTHISHLSLPESVKSSSCKIVYCCRNPKDMFVSLWHFGKKLAPEETADYPIEKAVEAFCEGKFIGGPFWDHILEYWYASRENPNKVLFVTYEELKKQTEVEMKRIAEFLECGFIEEEEVREIVKLCSFESLSNLEVNKEGKLPNGIETKTFFRKGEIGGWRDTLSESLAEEIDRTIEEKFKGSGLKFSS | soluble
MKHKLIDDELKYLDERSRDIFRHIVEAYLNDGGPVGSRNLSRLLRQTLSPATIRNVMSDLEHLGLIYAPHVSAGRMPTQSGLRFFVDAFMEAGDLPNEERENIEAQVKEAGHAQSVEHFLVQASQVLSDLSRGAGLVLATKHEGTLKHIEFVRLDGEHALAVLVTQQGGVENRIVHLPEGVTHAQLTEATNFLNAHIQGLTLSEAKEEIARLCSETRAALDHLSHHLVETGLALWGGEGADHKIRLIVRGRSNLLEDVKAEEDLKRLRHLFDDLETRESMAQLLDLTDEGSGVRIFIGSENKLFSLSGSSLVVAPYRDSQQKVIGALGVIGPTRLNYARIVPMVDYTAQLVSQLLR | not soluble
MNVHQRYAMGDSLAAKHGLWSEEQIDAAARVRRIAEEQGLETIRFSFPDQHGILRGKTLVASEALNCLDNGATITTTMLAKDTSHKTVFPVFQAGGGFGMSEMQGGADVVMLPDPTTFRVLPWAPTTGWVLCDLYFADGRPVQFATRNIYRAALQKLAARGYDYKAGLEVEFHVFKVVDSKMRPEHAGQPGEPPEVSLLSHGYQYLTEQRYDQMEPVLELIRRDVVALGLPLRSIEVEFGPSQCEFTFQPTVGLLPADLMVLFRAAVKQICRRHGYHATFMCRPRIPNVVSSGWHLHQSVVARDGGRNAFMSDSDVLSDFGRHYLAGLMTHARAATVFTTPTINGYKRYRSYSLAPDRAIWGRDNRGVMLRVLGGAGDKATRIENRVGEPAANPYLYMASQILSGLDGVDRALDPGPSADTPYETKADLLPKSLREAIFALRDDPFFRTALGDEFVDYYTFIKNAEIERFQAEVTEWEQREYFEMF | soluble
GEAPADRLKALVDAAVQPVMKANDIPGLAVAISLKGEPHYFSYGLASKEDGRRVTPETLFEIGSVSKTFTATLAGYALTQDKMRLDDRASQHWPALQGSRFDGISLLDLATYTAGGLPLQFPDSVQKDQAQIRDYYRQWQPTYAPGSQRLYSNPSIGLFGYLAARSLGQPFERLMEQQVFPALGLEQTHLDVPEAALAQYAQGYGKDDRPLRVGPGPLDAEGYGVKTSAADLLRFVDANLHPERLDRPWAQALDATHRGYYKVGDMTQGLGWEAYDWPISLKRLQAGNSTPMALQPHRIARLPAPQALEGQRLLNKTGSTNGFGAYVAFVPGRDLGLVILANRNYPNAERVKIAYAILSGLEQQGKVPLKR | soluble
MSSASELMRCSGRWTLFRRTLPRLRKCVGVGETSGREKPPNSPNSSTLPMMTKTELSPPQIHINFIFFLPKNVFILKNCSL | not soluble
MSLTPSVSTKELEGGLLIVDEMSMVDTWLANTLFKAIPTNMQVILVGDKDQLPSVGPGQVLHDLLEIEQIPKMELNQIYRQGDGSSIIPLAHEIKEGRLPKDFTKNQKDRSYFRSDAYQIEPLISKIVEKAKNKGFRAQDIQVLAPMYRGPAGIDALNKMMQEIFNPGKPGKKEVHWNDTVYRIGDKVLQLVNTPELNVFNGDMGEITGIILAKDSEDKVDELVIQFDANEVTYKRNEWNKITLSYCCSIHKSQGSEFKMVILPMVHQYQRMLQRNLLYTAVTRSKELLILLGEEQAYVTCVANESASRMTTLKSRIMDNDKMNEGHHHHHH | not soluble
MGSDKIHHHHHHMFMPEAVNWNRPIKVGVSSCLLGEKVRYDGGHKHDHYITDVLGKFFTFVPVCPEVGCGMPVPREAMRLEGDPEHPRLVTNKTRIDKTEQMRAFCKQKVTELADEELCGFIFKKDSPSSGLFRVKVHNEGMPTRSGSGLFAAAVVKHFPLLPAEEEGRLNDAAIRENFIERIFCYRRWKDFLLDSPDLGHLVTFHARHKLLILAHSTSIYREMGSLVAHGKGMSWPELAQSYEALFMKALALHATVKKNTNVLTHIMGYFKRDLSPAEKEELLGVIKEYHDRLVPLIVPLTLLKHYVGKYGQSYLQQQYYLSPHPAELMLRNHV | not soluble
MREKLTVIKVGGKIVEEEATLLQLLNDFAAISGHKVLVHGGGRSATKIAAQLGIESKMVNGRRITDAETLKVVTMVYGGLVNKNIVAGLQARGVNALGLTGADMNVIRSVKRPVKEVDYGFVGDVEKVDASLLADLIHKGVVPVMAPLTHDGQGNMLNTNADTIAGETAKALSALFDVTLVYCFEKKGVLRDENDDDSVIPEITRAEFEQYVADGVIQGGMIPKLENSFEAINAGVTEVVITLASAIKDNEGTRIKK | not soluble
MKRYTPDFPEMMRLCEMNFSQLRRLLPRNDAPGETVSYQVANAQYRLTIVESTRYTTLVTIEQTAPAISYWSLPSMTVRLYHDAMVAEVCSSQQIFRFKARYDYPNKKLHQRDEKHQINQFLADWLRYCLAHGAMAIPVYLEHHHHHH | soluble
MGSDKIHHHHHHMVSHKKNDRPRPLWILKIHKRLSLFEFKRYATGIGKDDGQDISWVLKGNAKNNVYQVTVETMENCETDECKKVIWVPDELAESTGTMFEDFKEDQPQESVSSISNNEANWGSSVNELDENYEKMQKEETFDPYDSDSDTSEDSDFDEDFEDSDKTMCSGQS | not soluble
MGSDKIHHHHHHMSFFNKIILIGRLVRDPEERYTLSGTPVTTFTIAVDRVPRKNAPDDAQTTDFFRIVTFGRLAEFARTYLTKGRLVLVEGEMRMRRWETPTGEKRVSPEVVANVVRFMDRKPAETVSETEEELEIPEEDFSSDTFSEDEPPF | soluble
MGGTLLNISPTQHKILKLLIENEKISMREISEKLSVNMSTVSRNFRSLLESGFALKVEEASPGSSGGRKTALYTANPNKFFILGIGVEQNRLIGVVIDAKGNEVEKSEIHRSFRGDEIVNALVDCVEPFKEKYPNTVGISIGMPGIIKENKVIFSSALGIEDLDLGRILSKEFGTEIFVLNDANAAVVGYGFQKKNVVYFLISVPYYLNQPVGVGAGLWLEGSLYQGSNGAAGEFEIDILPSILSGPATLDEVDLKNLSSDSFLKLLSKLSEVASFVSYLLDPETVIFGGDITLFSPEFHSGLAKNVRDHLEKRHISDVEVLFDERGLWTVAFGAAKAFWKRILEDYEFAGKILK | not soluble
